Experimental findings from US20190211081A1 (Chugai, published 2019) are described below.

Assay [1] concerns the target T1, soluble human FcRn (complex of FcRn and beta2-microglobulin) (human, UniProt P55899 24-290; P61769 21-119).
T1 construct: Expressed constructs contain the signal regions (FcRn Met1-Leu290; beta2-microglobulin Met1-Met119); Secreted from HEK293H cells and purified; also called hFcRn
The experiment in a line: Biacore 3000, antibody captured, human FcRn as analyte, pH 6.0. On the technique in general: SPR reads the build-up and loss of mass on a sensor chip optically.
Method: (§1) The binding to human FcRn was assessed using Biacore 3000. An antibody was bound to Protein L or rabbit anti-human IgG Kappa chain antibody immobilized onto a sensor chip, human FcRn was added as an analyte for interaction with the antibody, and the affinity (KD) was calculated from the amount of bound human FcRn. Specifically, Protein L or rabbit anti-human IgG Kappa chain antibody was immobilized onto sensor chip CM5 (BIACORE) by the amine coupling method using 50 mM Na-phosphate buffer (pH 6.0) containing 150 mM NaCl as the running buffer. […] Human FcRn was then injected and the binding of the human FcRn to antibody was assessed.
(§2) The obtained sensorgram was used to calculate the amount of hFcRn bound to the antibody immediately before the end of human FcRn injection. The affinity of the antibody for human FcRn was calculated by fitting with the steady state affinity method.

Assay [2] has as its target T1, soluble human FcRn (complex of FcRn and …). The experiment in a line: Biacore 3000, antibody captured on Protein L or rabbit anti-human kappa antibody, human FcRn as analyte, pH 6.0, steady state affinity.
Method: as §1, §2
For assay [3] the target is unchanged. In words: Biacore 3000, antibody captured, human FcRn as analyte, pH 6.0, steady state affinity.
Method: as §1
The affinity was computed using BIAevaluation Software. The obtained sensorgram was used to calculate the amount of hFcRn bound to the antibody immediately before the end of human FcRn injection. The affinity of the antibody for human FcRn was calculated by fitting with the steady state affinity method.
The resulting antibodies were assessed for their human FcRn-binding activity by the method described above.
Assay [4] shares this target. In words: Biacore T100, human FcRn immobilized on CM4 chip, antibody as analyte (divalent avidity), pH 6.0, 25 C, KD from ka and kd.
Method: Then, the present inventors assessed in this Example the binding of IgG to FcRn with divalent avidity by immobilizing human FcRn onto a sensor chip and injecting IgG as an analyte to more closely mimic the in vivo case.
First, about 2,000 RU of human FcRn was immobilized onto sensor chip CM4 (GE Healthcare) by the amino coupling method. Reagents used in the amino coupling were: ethanol amine (GE Healthcare), 50 mM NaOH solution (GE Healthcare), NHS (GE Healthcare), EDC (GE Healthcare). HBS-EP+ solution (10×HBS-EP+ solution (GE Healthcare) was used after dilution) was used as the mobile phase. Then, antibodies were each injected as an analyte into the sensor chip immobilized with human FcRn for three minutes to observe the binding of FcRn to the antibodies. After this observation, the mobile phase was injected for five minutes to assess the dissociation of each antibody variants from FcRn. All measurements were carried out at 25° C. The mobile phase used was 10 mM Cit (pH 6.0)/150 mM NaCl/0.05% Tween20.
From the obtained sensorgrams, the association rate constant ka (1/Ms) and dissociation rate constant kd (1/s) were calculated for the three minutes of binding phase using Biacore T100 Evaluation Software (GE Healthcare). The dissociation constant KD (M) was determined based on these values.

T1 sequence (P55899 24-290 limits assumed, chain 1 of 2): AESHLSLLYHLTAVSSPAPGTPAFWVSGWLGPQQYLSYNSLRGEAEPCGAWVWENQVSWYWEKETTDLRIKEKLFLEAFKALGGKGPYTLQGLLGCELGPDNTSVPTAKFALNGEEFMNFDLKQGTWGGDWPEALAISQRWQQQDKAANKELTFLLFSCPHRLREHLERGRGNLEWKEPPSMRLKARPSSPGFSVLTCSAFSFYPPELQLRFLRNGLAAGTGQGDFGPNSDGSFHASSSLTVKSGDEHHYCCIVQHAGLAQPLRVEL
T1 sequence (P61769 21-119 limits assumed, chain 2 of 2): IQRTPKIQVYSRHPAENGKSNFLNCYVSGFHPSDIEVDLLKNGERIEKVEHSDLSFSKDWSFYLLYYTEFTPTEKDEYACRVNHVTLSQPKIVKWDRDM

B1: IL6R H0-M58/L0-k0 (antibody, IgG2)
heavy: QVQLQESGPGLVRPSQTLSLTCTVSGYSITSDHAWSWVRQPPGRGLEWIGYISYSGITTYNPSLKSRVTMLRDTSKNQFSLRLSSVTAADTAVYYCARSLARTTAMDYWGQGSLVTVSSASTKGPSVFPLAPSSKSTSGGTAALGCLVKDYFPEPVTVSWNSGALTSGVHTFPAVLQSSGLYSLSSVVTVPSSNFGTQTYTCNVDHKPSNTKVDKTVERKSCVECPPCPAPPVAGPSVFLFPPKPKDTLMISRTPEVTCVVVDVSQEDPEVQFNWYVDGVEVHNAKTKPREEQFNSTFRVVSVLTVVHQDWLNGKEYKCKVSNKGLPAPIEKTISKTKGQPREPQVYTLPPSQEEMTKNQVSLTCLVKGFYPSDIAVEWESNGQPENNYKTTPPMLDSDGSFFLYSKLTVDKSRWQEGNVFSCSVMHEALHNHYTQKSLSLSP
light: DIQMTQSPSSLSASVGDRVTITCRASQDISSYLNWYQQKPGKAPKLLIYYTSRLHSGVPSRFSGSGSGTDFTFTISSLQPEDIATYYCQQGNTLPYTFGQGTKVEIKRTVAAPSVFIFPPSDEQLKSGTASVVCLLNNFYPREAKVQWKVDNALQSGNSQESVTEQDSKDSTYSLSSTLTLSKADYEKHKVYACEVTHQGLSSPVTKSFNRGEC
notes: L-chain constant region k0; also called M58-k0 (anti-IL-6 receptor antibody)
As to B1, the “fold increase of binding compared to IL6R H0-IgG1/L0-k0” value in assay [1] is roughly 1.4 times. The Kd was 1030 nM in assay [2], 1030 nM in assay [3] and 3.85 nM in assay [4].

B2: IL6R H0-M66/L0-k3 (antibody)
heavy: QVQLQESGPGLVRPSQTLSLTCTVSGYSITSDHAWSWVRQPPGRGLEWIGYISYSGITTYNPSLKSRVTMLRDTSKNQFSLRLSSVTAADTAVYYCARSLARTTAMDYWGQGSLVTVSSASTKGPSVFPLAPSSKSTSGGTAALGCLVKDYFPEPVTVSWNSGALTSGVHTFPAVLQSSGLYSLSSVVTVPSSNFGTQTYTCNVDHKPSNTKVDKTVERKCSVECPPCPAPPVAGPSVFLFPPKPKDTLMISRTPEVTCVVVDVSQEDPEVQFNWYVDGVEVHNAKTKPREEQFNSTFRVVSVLTVVHQDWLNGKEYKCKVSNKGLPAPIEKTISKTKGQPREPQVYTLPPSQEEMTKNQVSLTCLVKGFYPSDIAVEWESNGQPENNYKTTPPMLDSDGSFFLYSKLTVDKSRWQEGNVFSCSVMHEALHNHYTQKSLSLSP
light: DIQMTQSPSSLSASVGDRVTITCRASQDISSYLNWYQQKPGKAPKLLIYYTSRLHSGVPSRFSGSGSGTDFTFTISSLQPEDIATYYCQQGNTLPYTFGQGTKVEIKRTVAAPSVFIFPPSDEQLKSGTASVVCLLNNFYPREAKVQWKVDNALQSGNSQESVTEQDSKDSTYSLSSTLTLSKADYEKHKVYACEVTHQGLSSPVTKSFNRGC
notes: also called M66-k3
Regarding B2, in assay [4], the Kd was found to be 3.26 nM.

B3: IL6R H0-M66/L0-k0 (antibody)
heavy: QVQLQESGPGLVRPSQTLSLTCTVSGYSITSDHAWSWVRQPPGRGLEWIGYISYSGITTYNPSLKSRVTMLRDTSKNQFSLRLSSVTAADTAVYYCARSLARTTAMDYWGQGSLVTVSSASTKGPSVFPLAPSSKSTSGGTAALGCLVKDYFPEPVTVSWNSGALTSGVHTFPAVLQSSGLYSLSSVVTVPSSNFGTQTYTCNVDHKPSNTKVDKTVERKCSVECPPCPAPPVAGPSVFLFPPKPKDTLMISRTPEVTCVVVDVSQEDPEVQFNWYVDGVEVHNAKTKPREEQFNSTFRVVSVLTVVHQDWLNGKEYKCKVSNKGLPAPIEKTISKTKGQPREPQVYTLPPSQEEMTKNQVSLTCLVKGFYPSDIAVEWESNGQPENNYKTTPPMLDSDGSFFLYSKLTVDKSRWQEGNVFSCSVMHEALHNHYTQKSLSLSP
light: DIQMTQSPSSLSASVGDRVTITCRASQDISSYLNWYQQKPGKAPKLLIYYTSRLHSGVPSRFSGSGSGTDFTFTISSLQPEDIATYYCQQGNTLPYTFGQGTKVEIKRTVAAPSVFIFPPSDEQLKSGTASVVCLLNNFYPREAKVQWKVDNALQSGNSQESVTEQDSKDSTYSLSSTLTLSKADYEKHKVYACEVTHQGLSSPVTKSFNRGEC
notes: L-chain constant region k0; also called M66-k0
In the case of B3, in assay [4], the Kd worked out at 3.54 nM.

B4: IL31R H0-IgG1/L0-k0 (antibody)
heavy: not shown
light: DIQMTQSPSSLSASVGDRVTITCRTSENIYSFLAWYQQKPGKAPKLLIYNAKTLAKGVPSRFSGSGSGTDFTLTISSLQPEDFATYYCQHHYESPLTFGGGTKVEIKRTVAAPSVFIFPPSDEQLKSGTASVVCLLNNFYPREAKVQWKVDNALQSGNSQESVTEQDSKDSTYSLSSTLTLSKADYEKHKVYACEVTHQGLSSPVTKSFNRGEC
notes: also called anti-IL-31 receptor antibody, IgG1-k0
B4 had a Kd in assay [3] of 1070 nM.

B5: IL31R H0-M58/L0-k0 (antibody)
heavy: QVQLVQSGAEVKKPGASVKVSCKASGYTFTGYIMNWVRQAPGQGLEWMGLINPYNGGTSYNQKFKGRVTITADESTSTAYMELSSLRSEDTAVYYCARDGYDDGPYTMDYWGQGTLVTVSSASTKGPSVFPLAPSSKSTSGGTAALGCLVKDYFPEPVTVSWNSGALTSGVHTFPAVLQSSGLYSLSSVVTVPSSNFGTQTYTCNVDHKPSNTKVDKTVERKSCVECPPCPAPPVAGPSVFLFPPKPKDTLMISRTPEVTCVVVDVSQEDPEVQFNWYVDGVEVHNAKTKPREEQFNSTFRVVSVLTVVHQDWLNGKEYKCKVSNKGLPAPIEKTISKTKGQPREPQVYTLPPSQEEMTKNQVSLTCLVKGFYPSDIAVEWESNGQPENNYKTTPPMLDSDGSFFLYSKLTVDKSRWQEGNVFSCSVMHEALHNHYTQKSLSLSP
light: DIQMTQSPSSLSASVGDRVTITCRTSENIYSFLAWYQQKPGKAPKLLIYNAKTLAKGVPSRFSGSGSGTDFTLTISSLQPEDFATYYCQHHYESPLTFGGGTKVEIKRTVAAPSVFIFPPSDEQLKSGTASVVCLLNNFYPREAKVQWKVDNALQSGNSQESVTEQDSKDSTYSLSSTLTLSKADYEKHKVYACEVTHQGLSSPVTKSFNRGEC
notes: also called anti-IL-31 receptor antibody, M58-k0
With B5, in assay [3], the Kd is 910 nM.
